The source of these data is patent US20200247894A1 (Regeneron, published 2020).

T1: Human IL2Rγ extracellular domain expressed with a C-terminal myc-myc-hexahistidine tag (human)
T1 construct: also called hIL-2Rg-MMH; hIL-2RG-MMH
T1 chain: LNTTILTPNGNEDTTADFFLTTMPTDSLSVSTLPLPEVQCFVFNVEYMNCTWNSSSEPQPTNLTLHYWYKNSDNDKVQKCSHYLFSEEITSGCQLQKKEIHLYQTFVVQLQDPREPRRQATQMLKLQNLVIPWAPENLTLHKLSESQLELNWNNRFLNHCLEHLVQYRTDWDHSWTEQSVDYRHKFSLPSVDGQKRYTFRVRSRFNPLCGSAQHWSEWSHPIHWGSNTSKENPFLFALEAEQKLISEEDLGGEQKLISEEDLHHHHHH

T2: Macaca fascicularis IL2Rγ extracellular domain expressed with a C-terminal myc-myc-hexahistidine tag (Macaca fascicularis)
T2 construct: also called mfIL-2Rg-MMH; mfIL-2RG-MMH
T2 chain: T1 chain with T14A, A16T, T22S, H141R, T228S

B1: H4H12871P (antibody, human IgG4 S228P, kappa, V domains shown)
VH: QVQLQESGPGLVKPSQTLSLTCTVSGGSITSGGYYWSWIRQYPGQGLEWIGYIYYSGKTYYNPSFTSRITISVDTSKKQFSLKMSSVTAADTAVYYCARAGFTSSNGWFDPWGQGTLVTVSS
VL: DIQMTQSPSSLSASVGDRVTITCRASQNIRSYLNWYQQKPGKAPKLLIYSASSLQSGVPSRFSGSGSGTDFTLTISSLQPEDFPTYYCQQTYSSPWTFGPGTKVEIKR
notes: anti-IL2Rgamma mAb expressed with human IgG4 Fc; also called REGN9434
B2: H4H12884P (antibody, human IgG4 S228P, kappa, V domains shown)
VH: QVQLQESGPGLVKPSQTLSLTCTVSGGSISSGGYYWSWIRQHPGKGLEWIGFIYYSGKTYYNPSLKSRLTISVDTSKSQFSLKLRSVTAADTAVYYCARLGYTNSAGWFDPWGQGTLVTVSS
VL: DIQMTQSPSSLSASVGDRVTITCRASQSISSYLNWYQQKPGKAPNLLIYAASSLQSGVPSRFSGSGSGTDFTLTISSLQPEDLATYYCQQSYTTPFTFGPGTKVDIKR
notes: anti-IL2Rgamma mAb expressed with human IgG4 Fc
B3: H4H12890P (antibody, human IgG4 S228P, kappa, V domains shown)
VH: EVQLVESGGGLVQPGGSLRLSCAASGFTFNNYAMHWVRQAPGKGLEYVSSISSSGGSTYYEDSVKGRFTISRDNSKNTLYLQMGSLRAEDMAVYYCARSFYGSGTYYDTFDMWGQGTMVTVSS
VL: B2 VL with V15I, S31R, N45K, G64A, L83F, T93S, P100Q, V104L, D105E
notes: as for B2
B4: H4H12889P (antibody, human IgG4 S228P, kappa, V domains shown)
VH: EVQLVESGGGLVQPGGSLRLSCAASGFIFSSYEMHWVRQAPGKGLEWISYISSSGTTIYYADSVKGRFTISRDNAKNSLYLHMNSLRAEDTAVYYCTRARITGTFDVFDIWGQGTMVTVSS
VL: DIQMTQSPSSLSASVGDRVTITCRASQSISSYLNWYQQKPGKAPKLLIFAASNLQSGVPSRFSGSRSGTDFTLTISSLQPEDFATYYCQQNYNIPYTFGQGTKLEIKR
notes: anti-IL2Rgamma mAb expressed with human IgG4 Fc; also called REGN7257
B5: H4H12874P (antibody, human IgG4 S228P, kappa, V domains shown)
VH: QVQLVESGGGVVQPGRSLRLSCAASGFNFRNFGMHWVRQAPGKGLEWVAGILYDGSSKYYADSVKDRFTISRDNSKNTLFLQMNSLRAEDTAMYYCAKEEDTAMVPFDSWGPGTLVTVSS
VL: DIQLTQSPSFLSASVGDRVTITCWASQGISSYLAWYQQKPGKAPTLLIYAASTLQSGVPSRFSGSGSGTEFTLTISSLQPEDFASYYCQQLKSYPLTFGGGTKVEIKR
notes: as for B2
B6: H4H12863P (antibody, human IgG4 S228P, kappa, V domains shown)
VH: QVQLVESGGGVVQPGRSLRLSCTASGFTFRSYDMYWVRQAPGKGLEWVSVITYDGNNKYYADSVKGRFTISRDNSKNTLFLQMSSLRPEDTAVYYCAKRGLIWVGESFDYWGQGTLVTVSS
VL: DIQMTQSPSTLSASVGDRVTITCRASQSINSWLAWYQQKPGKAPNLLIYKASSLESGVPSRFSGSGSGTEFTLTISSLQPDDFATYYCQQYKSYSWTFGQGTKVEIKR
notes: as for B2
B7: H4H12886P (antibody, human IgG4 S228P, kappa, V domains shown)
VH: EVQLVESGGGLVKPGGSLRLSCAASGFTFSTAWMSWVRQSPGRGLEWVGRMKSKTDGGTTFYAAPVKGRFTISRDDSKNTLYLQMNSLKTEDTAVYYCTTGLVPAFYKYYGVDVWGQGTTVTVSS
VL: DIQMTQSPSSLSASVGDRITITCQASQDITNYLNWYQQKPGKAPNLLIYDASNLVTGVPSRFSGSGSGTDFTFTILSLQPEDIATYYCQQYDSLLTFGPGTKVDIKR
notes: as for B2

Numbering of substitutions follows the chain as printed.

The target in one test is T1, Human IL2Rγ extracellular domain …. Put plainly: SPR, captured mAb, 25C, dissociation pH 6.0. As to the method:
(§1) The dissociation rate constant (kd) for binding of IL-2Rγ reagents to purified anti-IL2Rγ monoclonal antibodies was determined using a real-time surface plasmon resonance based Biacore 4000 biosensor platform. […] The CM5 Biacore sensor surface derivatized by amine coupling with monoclonal mouse anti-human Fc antibody (GE, Catalog # BR-1008-39) was used to capture anti-IL2Rγ monoclonal antibodies expressed with human IgG4 Fc. All the IL2Rγ reagents were expressed with a C-terminal myc-myc-hexahistidine tag (subsequently referred to with a -MMH suffix). […] The dissociation of bound IL-2Rg-MMH was performed in PBS-T-pH7.4 or PBS-T-pH6.0 running buffers for 6 minutes.
(§2) Dissociation rate constants (kd) in two running buffers were determined by fitting the real-time binding sensorgrams to a 1:1 binding model using Scrubber 2.0c curve-fitting software. Values of dissociation rate for […] mAb binding to hIL-2RG-MMH and mfIL-2RG-MMH at 25° C. and 37° C. in PBS-T-pH7.4 and PBS-T-pH6.0 is shown in Table 2-1 through Table 2-8.
In general terms: Surface plasmon resonance follows binding to a sensor surface in real time, without labels.
In general, koff refers to the rate constant with which the complex falls apart. In the case of B1, the “100 nM Ag Bound (RU)” value stood at 129 RU, the koff came to 0.00136 s⁻¹ and the “t1/2” value is 8 min.

Consider B2, for which the “100 nM Ag Bound (RU)” value came to 135 RU, the koff turned out to be 0.00199 s⁻¹ and the “t1/2” value was determined as 6 min.

With B3, the “100 nM Ag Bound (RU)” value was found to be 64 RU, the koff was found to be 0.000636 s⁻¹ and the “t1/2” value amounted to 18 min.

For the molecule B4, the “100 nM Ag Bound (RU)” value was 130 RU, the koff was 0.000437 s⁻¹ and the “t1/2” value was 26 min.

In the case of B5, the “100 nM Ag Bound (RU)” value is 66 RU, the koff came out at 0.000724 s⁻¹ and the “t1/2” value was 16 min.

For the molecule B6, the “100 nM Ag Bound (RU)” value came to 116 RU, the koff was found to be 0.000762 s⁻¹ and the “t1/2” value amounted to 15 min.

Turning to B7, the “100 nM Ag Bound (RU)” value was 84 RU, the koff was found to be 0.000634 s⁻¹ and the “t1/2” value worked out at 18 min.

A further test deals with T2, Macaca fascicularis IL2Rγ extracellular …. Put plainly: SPR, captured mAb, 25C, dissociation pH 6.0. As to the method: as §1, §2
As for B1, the “100 nM Ag Bound (RU)” value came out at 128 RU, the koff is 0.00116 s⁻¹ and the “t1/2” value is 10 min.

For B2, the “100 nM Ag Bound (RU)” value came to 133 RU, the koff is 0.00159 s⁻¹ and the “t1/2” value stood at 7 min.

As to B3, the “100 nM Ag Bound (RU)” value is 60 RU, the koff turned out to be 0.000668 s⁻¹ and the “t1/2” value turned out to be 17 min.

As for B4, the “100 nM Ag Bound (RU)” value was 126 RU, the koff was 0.000434 s⁻¹ and the “t1/2” value came out at 27 min.

Take B5: the “100 nM Ag Bound (RU)” value worked out at 64 RU, the koff is 0.000729 s⁻¹ and the “t1/2” value is 16 min.

On to B6, for which the “100 nM Ag Bound (RU)” value stood at 118 RU, the koff stood at 0.000761 s⁻¹ and the “t1/2” value was determined as 15 min.

Turning to B7, the “100 nM Ag Bound (RU)” value was 83 RU, the koff came out at 0.000682 s⁻¹ and the “t1/2” value stood at 17 min.

The next test deals with T1, Human IL2Rγ extracellular domain …. Put plainly: SPR, captured mAb, 37C, dissociation pH 6.0. As to the method: as §1, §2
On to B1, for which the “100 nM Ag Bound (RU)” value was determined as 141 RU, the koff is 0.00246 s⁻¹ and the “t1/2” value is 5 min.

Regarding B2, the “100 nM Ag Bound (RU)” value came to 136 RU, the koff turned out to be 0.00379 s⁻¹ and the “t1/2” value was determined as 3 min.

With B3, the “100 nM Ag Bound (RU)” value worked out at 82 RU, the koff came to 0.00286 s⁻¹ and the “t1/2” value stood at 4 min.

For B4, the “100 nM Ag Bound (RU)” value was determined as 153 RU, the koff amounted to 0.00188 s⁻¹ and the “t1/2” value is 6 min.

Take B5: the “100 nM Ag Bound (RU)” value came to 91 RU, the koff was 0.00261 s⁻¹ and the “t1/2” value amounted to 4 min.

Take B6: the “100 nM Ag Bound (RU)” value is 145 RU, the koff was found to be 0.00226 s⁻¹ and the “t1/2” value came to 5 min.

As for B7, the “100 nM Ag Bound (RU)” value was 115 RU, the koff is 0.00216 s⁻¹ and the “t1/2” value was 5 min.

The target is the same in a further test. In words: SPR, captured mAb, 25C, dissociation pH 7.4. As to the method: as §1, §2
With B1, the “100 nM Ag Bound (RU)” value turned out to be 121 RU, the koff came out at 0.000596 s⁻¹ and the “t1/2” value came out at 19 min.

Consider B2, for which the “100 nM Ag Bound (RU)” value turned out to be 161 RU, the koff worked out at 0.00064 s⁻¹ and the “t1/2” value was 18 min.

For B3, the “100 nM Ag Bound (RU)” value was 72 RU, the koff was found to be 0.000192 s⁻¹ and the “t1/2” value was determined as 60 min.

B4: the “100 nM Ag Bound (RU)” value worked out at 118 RU, the koff stood at 0.000138 s⁻¹ and the “t1/2” value amounted to 84 min.

Take B5: the “100 nM Ag Bound (RU)” value is 72 RU, the koff came to 0.000162 s⁻¹ and the “t1/2” value is 71 min.

On to B6, for which the “100 nM Ag Bound (RU)” value came out at 151 RU, the koff stood at 0.000172 s⁻¹ and the “t1/2” value worked out at 67 min.

For B7, the “100 nM Ag Bound (RU)” value was determined as 113 RU, the koff came out at 0.000155 s⁻¹ and the “t1/2” value was 75 min.

The next test concerns the target T2, Macaca fascicularis IL2Rγ extracellular …. Put plainly: SPR, captured mAb, 25C, dissociation pH 7.4. The protocol: as §1, §2
Regarding B1, the “100 nM Ag Bound (RU)” value was found to be 125 RU, the koff turned out to be 0.000481 s⁻¹ and the “t1/2” value came out at 24 min.

In the case of B2, the “100 nM Ag Bound (RU)” value worked out at 160 RU, the koff was found to be 0.000516 s⁻¹ and the “t1/2” value is 22 min.

Turning to B3, the “100 nM Ag Bound (RU)” value turned out to be 71 RU, the dissociation rate constant (koff) came out at 0.000203 s⁻¹ and the “t1/2” value worked out at 57 min.

Take B4: the “100 nM Ag Bound (RU)” value was found to be 123 RU, the koff stood at 0.000157 s⁻¹ and the “t1/2” value turned out to be 74 min.

Regarding B5, the “100 nM Ag Bound (RU)” value amounted to 73 RU, the koff was found to be 0.000164 s⁻¹ and the “t1/2” value stood at 70 min.

In the case of B6, the “100 nM Ag Bound (RU)” value worked out at 155 RU, the koff was 0.000194 s⁻¹ and the “t1/2” value was found to be 59 min.

For the molecule B7, the “100 nM Ag Bound (RU)” value is 113 RU, the koff was 0.000175 s⁻¹ and the “t1/2” value amounted to 66 min.

For another test, the target named is T1, Human IL2Rγ extracellular domain …. In words: SPR, captured mAb, 37C, dissociation pH 7.4. The protocol: as §1, §2
Take B1: the “100 nM Ag Bound (RU)” value worked out at 139 RU, the koff is 0.00111 s⁻¹ and the “t1/2” value turned out to be 10 min.

Regarding B2, the “100 nM Ag Bound (RU)” value is 171 RU, the koff worked out at 0.00151 s⁻¹ and the “t1/2” value stood at 8 min.

With B3, the “100 nM Ag Bound (RU)” value was found to be 90 RU, the koff is 0.000661 s⁻¹ and the “t1/2” value was determined as 17 min.

Regarding B4, the “100 nM Ag Bound (RU)” value was determined as 147 RU, the koff amounted to 0.000636 s⁻¹ and the “t1/2” value was 18 min.

As for B5, the “100 nM Ag Bound (RU)” value amounted to 99 RU, the koff amounted to 0.000572 s⁻¹ and the “t1/2” value was found to be 20 min.

For the molecule B6, the “100 nM Ag Bound (RU)” value was 176 RU, the koff turned out to be 0.000672 s⁻¹ and the “t1/2” value was found to be 17 min.

As for B7, the “100 nM Ag Bound (RU)” value stood at 146 RU, the koff stood at 0.000519 s⁻¹ and the “t1/2” value was determined as 22 min.
